B1: human TRIM28 RBCC domain R184D (domain or fragment)
chain: CGVCRERLRPEREPRLLPCLHSACSACLGPAAPAAANSSGDGGAAGDGTVVDCPVCKQQCFSKDIVENYFMRDSGSKAATDAQDANQCCTSCEDNAPATSYCVECSEPLCETCVEAHQDVKYTKDHTVRSTGPAKSRDGERTVYCNVHKHEPLVLFCESCDTLTCRDCQLNAHKDHQYQFLEDAVRNQRKLLASLVKRLGDKHATLQKSTKEVRSSIRQVSDVQKRVQVDVKMAILQIMKELNKRGRVLVNDAQKVTEGQQERLERQHWTMTKIQKHQEHILRFASWALESDNNTALLLSKKLIYFQLHRAL
B2: mouse ZFP568 residues 1-105 containing the first KRAB domain (1K) (domain or fragment)
chain: not shown

Tests used:
AUC = target: the molecule itself; experiment: AUC
[1] = target: B1; experiment: AUC

Row | stoichiometry N [1] | Binder | stoichiometry N (AUC)
1 |  | B1 | 2
2 | 2 RBCC chains per 1K (2:1) | B2 | 
